Patent US12365732 (23ANDME, dated 2025)
Numbering of substitutions follows the chain as printed. Numbers in names are those of the source.

B1: h10G1 IgG (humanized 10G1) (antibody, V domains shown)
VH: EIQLVQSGSELKKPGASVKVSCKASGYPFTTYGMSWVRQAPGQGLEWMGWINTDSGVPTYADDFKGRFVFSLDTSVSTAYLQISSLKAEDTAVYFCARNIYYGWGNFDYWGQGTLVTVSS
VL: EIVMTQSPDFQSVTPKEKVTITCRASQDIYRNLHWYQQKPDQTPKLLIKHASDSISGIPSRFSGSGSGTDFTLTINSLEAEDAAAYYCLQGYSMPYTFGGGTKVEIKG
notes: human IgG1 N297G
B2: mAb1.v7.2 Fab (Fab, V domains shown)
VH: EVQLVQSGAEVKKPGASVKVSCKASGFTFTNNWRHWVRQAPGQGLEWIGMIHFNSGITNINEKFKNRVTMTTDTSTSTAYMELRSLRSEDTAVYYCRSDGVYEGYFDYWGQGTLVTVSS
VL: DIQLTQSPSSLSASVGDRVTITCKASQNVGTAIVWYQQKPGKAPKVLIYSASTRYTGVPSRFSGSGSGTDFTLTISSLQPEDFATYYCQQYSSSPLTFGQGTKVEIK
notes: also called M34R/P52aF/T97V
B3: mAb1.v7.16 Fab (Fab, V domains shown)
VH: B2 VH with F53P
VL: B2 VL
notes: also called M34R/T97V
B4: mAb1.v7.NGS9 IgG (antibody, V domains shown)
VH: B2 VH with W33F, R34M, F53A
VL: DIQLTQSPSSLSASVGDRVTITCKASQNVGTAIVWYQQKPGKAPKVLIYSASTRYTGVPSRFSGSGSGTDFTLTISSLQPEDFATYYCQQYSSSPLTFGQGTKVEIKG
notes: human IgG1 N297G
B5: mAb1.v7.NGS10 IgG (antibody, V domains shown)
VH: B2 VH with W33F, R34M, M50F, F53A, V101I
VL: B4 VL
notes: human IgG1 N297G
B6: mAb1.v7.9 Fab (Fab, V domains shown)
VH: B2 VH with F53M
VL: B2 VL
notes: also called M34R/P52aM/T97V
B7: mAb1.v7.48 Fab (Fab, V domains shown)
VH: B2 VH with N32R, R34M, F53H
VL: B2 VL
notes: also called N32R/P52aH/T97V
B8: mAb1.v7.NGS11 IgG (antibody, V domains shown)
VH: B2 VH with W33F, R34M, M50F, F53A
VL: B4 VL
notes: human IgG1 N297G
B9: mAb1.v7.70 Fab (Fab, V domains shown)
VH: B2 VH with N32R, R34M, F53A
VL: B2 VL
notes: also called N32R/P52aA/T97V

How the values were obtained:
[1] = target: T1, hu-CD96 isoform 2 on CHO cells (human, UniProt P40200 22-585); assay: FACS, blocks 10 nM CD155-Fc-FLAG binding to CD96-CHO
T1 construct: also called CHO-CD96 (isoform 2); CD96-CHOs
T1 sequence: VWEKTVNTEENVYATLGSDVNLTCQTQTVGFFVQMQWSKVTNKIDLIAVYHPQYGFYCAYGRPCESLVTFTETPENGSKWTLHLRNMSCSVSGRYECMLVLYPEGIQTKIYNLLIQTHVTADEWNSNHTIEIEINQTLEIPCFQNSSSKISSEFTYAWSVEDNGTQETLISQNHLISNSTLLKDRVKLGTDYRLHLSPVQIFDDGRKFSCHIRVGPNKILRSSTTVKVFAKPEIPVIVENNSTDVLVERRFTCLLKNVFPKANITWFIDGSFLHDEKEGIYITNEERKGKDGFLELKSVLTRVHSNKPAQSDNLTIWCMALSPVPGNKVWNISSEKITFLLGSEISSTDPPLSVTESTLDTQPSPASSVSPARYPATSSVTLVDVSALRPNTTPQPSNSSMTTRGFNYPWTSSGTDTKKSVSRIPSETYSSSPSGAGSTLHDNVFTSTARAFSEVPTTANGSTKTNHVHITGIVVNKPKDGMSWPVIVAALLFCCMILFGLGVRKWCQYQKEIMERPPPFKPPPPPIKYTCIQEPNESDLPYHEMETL
Protocol: CHO cells stably expressing isoform 2 of hu-CD96 (Origene, catalog #RC221005) were incubated with anti-CD96 antibodies for 20 minutes at 4° C. The cells were washed, and then incubated with 10 nM human CD155-Fc-FLAG for 30 minutes at 4° C. Cells were washed, and then human CD155-Fc-FLAG binding was detected by incubation with anti-FLAG-APC (Columbia Biosciences, catalog #D3-1718-1MG) for 20 minutes at 4° C. Cell binding was analyzed by flow cytometry with a CytoFLEX (Beckman Coulter). CD155 binding is represented as median fluorescence intensity (MedFI).
As shown in Table 20 (below), the anti-CD96 antibodies, mAb1.v7.NGS8, mAb1.v7.NGS9, mAb1.v7.NGS10, mAb1.v7.NGS11, and h10G1 inhibited soluble hu-CD155 binding to CD96-expressing CHO cells dose-dependently and potently. The antibody NK92.39 (Fuchs et al., 2004; Biolegend catalog #338405) inhibited receptor binding similarly.

[2] = target: T2, cy-CD96 (soluble, extracellular domain) (cynomolgus monkey, UniProt P40200 22-516 (human entry), biotinylated in Octet and blocking ELISA); assay: BLI (Octet), biotin-CD96 on SA, Fab analyte
T2 construct: the assays name only cy-CD96; also called biotinylated cy-CD96
T2 chain: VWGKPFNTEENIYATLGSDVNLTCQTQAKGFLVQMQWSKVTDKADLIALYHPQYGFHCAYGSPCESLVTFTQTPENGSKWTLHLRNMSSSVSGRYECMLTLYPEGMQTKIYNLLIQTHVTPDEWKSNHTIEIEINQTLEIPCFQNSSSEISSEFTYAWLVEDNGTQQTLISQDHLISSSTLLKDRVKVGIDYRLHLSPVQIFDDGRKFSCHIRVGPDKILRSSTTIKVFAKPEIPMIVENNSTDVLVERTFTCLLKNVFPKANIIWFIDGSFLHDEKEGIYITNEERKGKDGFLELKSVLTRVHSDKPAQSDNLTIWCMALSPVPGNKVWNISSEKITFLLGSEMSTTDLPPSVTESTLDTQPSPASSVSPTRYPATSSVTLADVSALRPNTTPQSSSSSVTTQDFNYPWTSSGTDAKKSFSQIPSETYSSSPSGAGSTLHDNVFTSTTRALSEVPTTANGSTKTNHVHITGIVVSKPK
Protocol: The binding affinity of the generated Fab variants of mAb1.v7 for hu-CD96 and cy-CD96 was determined by OCTET (Pall ForteBio) Bio-Layer Interferometry (BLI) binding analysis. The biotinylated hu-CD96 or biotinylated cy-CD96 was diluted to a final concentration 10 µg/mL in experimental buffer (PBS buffer with 0.01% Tween-20) and immobilized on the Streptavidin Capture (SA) biosensors (Pall ForteBio). Three-fold serial dilutions of the mAb1.v7 Fab variants starting at 1 µM as analytes were diluted in the experimental buffer (PBS buffer with 0.01% Tween-20). The biosensors were equilibrated in experimental buffer at 30° C. for ten minutes prior to starting the experiment. The kinetics experiment was performed with the following steps, where the step name, solution and time are listed: Baseline (buffer—60 seconds), Loading (biotinylated antigen—200 seconds), Baseline 2 (buffer—minimum 120 seconds), Association (analyte—200-300 seconds) and Dissociation (buffer—1000 seconds). The resulting BLI signal from analyte association and dissociation from the […] was analyzed using the Octet Data Analysis software (Pall ForteBio). First a reference subtraction was performed on all recorded traces using the reference well (biosensor that underwent same steps as experimental wells but no analyte for the Association step) and then all the traces were aligned to the beginning of the Association step. The entirety of the Association and Dissociation steps were used in a Global fit (minimum of four analyte concentration traces) in a 1:1 binding model to calculate the K_D values for the 16 selected individual mAb1.v7 Fab variants as summarized in Table 9 (below).

Binder	IC50 [1] [nM]	Kd [2] [nM]
B1	0.06	
B2		39.1
B3		97.9
B4	0.91	
B5	0.57	
B6		129
B7		68
B8	0.46	
B9		52.6
